Measured values published in patent US20140004128A1 (AstraZeneca / MedImmune, published 2014).

Experiments:
recombinant human IL-18 [1] = molecular target: T1, recombinant human IL-18 (human, UniProt Q14116 37-193); assay: cell-based or functional assay
recombinant rat IL-18 [2] = molecular target: T2, recombinant rat IL-18 (rat, UniProt P97636 37-194); assay: SPR (BIAcore 2000), IgG amine-coupled to CM3 chip
T2 construct: Bought
T2 sequence (looked up): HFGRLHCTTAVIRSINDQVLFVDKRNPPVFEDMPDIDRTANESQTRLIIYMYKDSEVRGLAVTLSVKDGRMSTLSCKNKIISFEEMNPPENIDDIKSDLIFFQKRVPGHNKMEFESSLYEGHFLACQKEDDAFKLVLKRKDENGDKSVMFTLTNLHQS

human IL-1beta [3] = molecular target: T3, human IL-1beta (human, UniProt P01584 117-269); assay: SPR (BIAcore 2000), IgG amine-coupled to CM3 chip
T3 construct: Bought; also called Human IL-1β

human IL-1F7/FIL1zeta [4] = molecular target: T4, human IL-1F7/FIL1zeta (human, UniProt Q9NZH6-2 27-192, limits assumed); assay: SPR (BIAcore 2000), IgG amine-coupled to CM3 chip
T4 construct: Bought
T4 sequence (looked up): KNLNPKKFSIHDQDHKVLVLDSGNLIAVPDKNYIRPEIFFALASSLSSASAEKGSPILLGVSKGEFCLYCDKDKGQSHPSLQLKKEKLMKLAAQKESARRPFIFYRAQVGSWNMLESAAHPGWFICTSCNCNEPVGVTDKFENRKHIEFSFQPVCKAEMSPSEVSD

recombinant human IL-18 [5] = molecular target: T1, recombinant human IL-18; assay: SPR (BIAcore 2000), IgG amine-coupled to CM3 chip, IL-18 as analyte, 1:1 Langmuir
recombinant human IL-18 [6] = molecular target: T1, recombinant human IL-18; assay: HTRF receptor-ligand competition: human IL-18 with Eu-cryptate IL-18Rα and biotinylated IL-18Rβ
[7] = molecular target: T5, recombinant Rhesus Macaque IL-18 (Rhesus Macaque, UniProt Q9BGI5 37-193); assay: HTRF receptor-ligand competition: Rhesus Macaque IL-18 (1.5 nM) with Eu-cryptate human IL-18Rα and biotinylated human IL-18Rβ
T5 construct: Bought; also called Rhesus m; IL-18

recombinant human IL-18 [8] = molecular target: T1, recombinant human IL-18; assay: HTRF receptor-ligand competition: human IL-18 with Eu-cryptate IL-18Rα and biotinylated IL-18Rβ; purified scFv
recombinant human IL-18 [9] = molecular target: T1, recombinant human IL-18; assay: cell-based or functional assay; remark: listed apart in the source
[10] = molecular target: T5, recombinant Rhesus Macaque IL-18; assay: cell-based or functional assay
recombinant human IL-18 [11] = molecular target: T1, recombinant human IL-18; assay: cell-based or functional assay; remark: listed apart in the source
recombinant rat IL-18 [12] = molecular target: T2, recombinant rat IL-18; assay: SPR, IgG amine-coupled to CM5 chip
mouse IL-18 = molecular target: T6, mouse IL-18 (mouse, UniProt P70380 36-192); assay: SPR, IgG amine-coupled to CM5 chip
T6 sequence (looked up): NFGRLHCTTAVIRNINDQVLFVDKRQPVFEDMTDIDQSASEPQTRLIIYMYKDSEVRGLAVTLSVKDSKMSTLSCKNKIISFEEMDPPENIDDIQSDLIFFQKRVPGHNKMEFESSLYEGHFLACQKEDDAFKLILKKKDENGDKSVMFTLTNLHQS

human IL-1beta [13] = molecular target: T3, human IL-1beta; assay: SPR, IgG amine-coupled to CM5 chip
human IL-1F7/FIL1zeta [14] = molecular target: T4, human IL-1F7/FIL1zeta; assay: SPR, IgG amine-coupled to CM5 chip
[15] = molecular target: T7, human IL-18-FH (baculovirus-produced IL-18 containing FLAG and His tags) (human, UniProt Q14116 37-193); assay: HTRF competition of IL-18BPa-Fc binding to FLAG/His-tagged human IL-18
T7 construct: not shown: N-terminal Flag tag and histidine tag

recombinant human IL-18 [16] = molecular target: T1, recombinant human IL-18; assay: SPR (BIAcore), IgG amine-coupled to CM3 or CM5 chip, IL-18 as analyte, 1:1 Langmuir
[17] = molecular target: T5, recombinant Rhesus Macaque IL-18; assay: as above
cynomolgus monkey IL-18 = cynomolgus monkey IL-18 (cynomolgus monkey, UniProt A0A2K5TJ84 37-193); assay: cell-based or functional assay
recombinant human IL-18 [18] = molecular target: T1, recombinant human IL-18; assay: cell-based or functional assay; remark: listed apart in the source
[19] = molecular target: T5, recombinant Rhesus Macaque IL-18; assay: cell-based or functional assay; remark: listed apart in the source

B1: Antibody 1 IgG2 (antibody, V domains shown)
VH: QVQLQQSGPRLVKPSQTLSLTCTVSGGSISSGGYYWSWIRQPAGKGLEWIGSIYYSGSTYYNPSLKSRVTISGDTPKNQFSLKLSSVTAADTAVYYCARTPAYDGDARADFFDVWGRGTLVTVSS
VL: DIVMTQSPSTLSASVGDRVTITCRASQGISSWLAWYQQKPGRAPKVLIYKASTLESGVPSRFSGSGSGTDFTLTISSLQPEDFATYYCQQSYSTPWTFGQGTKLEIK
notes: Whole human IgG2 heavy chain and human kappa light chain (vectors pEU9.2 and pEU3.4)
IC50, inhibition of IFNγ release by KG-1 cells stimulated with human IL-18 and TNFα (recombinant human IL-18 [1]): 258 nM
binding result (recombinant rat IL-18 [2]): no binding (tested: 200 nM)
binding result (human IL-1beta [3]): no binding (tested: 200 nM)
binding result (human IL-1F7/FIL1zeta [4]): no binding (tested: 200 nM)
Kd (recombinant human IL-18 [5]): 9.96 nM
koff (recombinant human IL-18 [5]): 0.00732 s⁻¹
kon (recombinant human IL-18 [5]): 735000 M⁻¹ s⁻¹
IC50 (recombinant human IL-18 [6]): 2.9 nM
IC50 [7]: 5.4 nM

B2: Antibody 1 scFv (scFv, V domains shown)
VH: QVQLQQSGPRLVKPSQTLSLTCTVSGGSISSGGYYWSWIRQPAGKGLEWIGSIYYSGSTYYNPSLKSRVTISGDTPKNQFSLKLSSVTAADTAVYYCARTPAYDGDARADFFDVWGRGTLVTVSS
VL: DIVMTQSPSTLSASVGDRVTITCRASQGISSWLAWYQQKPGRAPKVLIYKASTLESGVPSRFSGSGSGTDFTLTISSLQPEDFATYYCQQSYSTPWTFGQGTKLEIK
notes: also called purified scFv Antibody 1
IC50 (recombinant human IL-18 [8]): 12 nM

B3: Antibody 12 GL IgG2 (antibody, V domains shown)
VH: QVQLQESGPGLVKPSETLSLTCTVSGGSISADGYYWSWIRQPPGKGLEWIGSLYYSGSTYYNPSLKGRVTISGDTSKNQFSLKLSSVTAADTAVYYCARTPAYFGQDRTDFFDVWGRGTLVTVSS
VL: DIQMTQSPSTLSASVGDRVTITCRASQGISSWLAWYQQKPGKAPKVLIYKASTLESGVPSRFSGSGSGTEFTLTISSLQPDDFATYYCQQSHHPPWTFGQGTKLEIK
notes: Germlined; whole human IgG2, kappa light chain
IC50, IFNγ release KG-1 cell assay, human IL-18 (recombinant human IL-18 [9]): 0.202 nM
IC50, IFNγ release KG-1 cell assay, Rhesus Macaque IL-18 [10]: 0.285 nM
IC50, IFNγ release by human PBMC stimulated with LPS and IL-12 (endogenous IL-18) (recombinant human IL-18 [11]): 0.32 nM
binding result (recombinant rat IL-18 [12]): no binding
binding result (mouse IL-18): no binding
binding result (human IL-1beta [13]): no binding
binding result (human IL-1F7/FIL1zeta [14]): no binding
IC50 [15]: 0.2 nM
Kd (recombinant human IL-18 [16]): 0.092 nM
koff (recombinant human IL-18 [16]): 8.16e-05 s⁻¹
kon (recombinant human IL-18 [16]): 885000 M⁻¹ s⁻¹
Kd [17]: 0.046 nM
koff [17]: 4.79e-05 s⁻¹
kon [17]: 1.05e+06 M⁻¹ s⁻¹

B4: Antibody 12 GL IgG1TM (antibody, V domains shown)
VH: QVQLQESGPGLVKPSETLSLTCTVSGGSISADGYYWSWIRQPPGKGLEWIGSLYYSGSTYYNPSLKGRVTISGDTSKNQFSLKLSSVTAADTAVYYCARTPAYFGQDRTDFFDVWGRGTLVTVSS
VL: DIQMTQSPSTLSASVGDRVTITCRASQGISSWLAWYQQKPGKAPKVLIYKASTLESGVPSRFSGSGSGTEFTLTISSLQPDDFATYYCQQSHHPPWTFGQGTKLEIK
notes: Human IgG1 (gamma 1 (f)) constant domains with three single amino acid substitutions (TM, Oganesyan et al 2008) and human kappa Km3 light chain constant domain; Expressed in CHO cells; also called germlined Antibody 12 IgG1TM
IC50, inhibition of IL-18-induced CD11b up-regulation on human neutrophils (flow cytometry) (recombinant human IL-18 [1]): 2.03 nM
IC50, inhibition of IL-18-mediated enhancement of fMLFF-induced ROS production in human neutrophils (flow cytometry) (recombinant human IL-18 [1]): 0.2 nM
IC50, IFNγ release KG-1 cell assay, human IL-18 (recombinant human IL-18 [9]): 0.08 nM
IC50, IFNγ release KG-1 cell assay, Rhesus Macaque IL-18 [10]: 0.461 nM
IC50, IFNγ release by human PBMC stimulated with LPS and IL-12 (endogenous IL-18) (recombinant human IL-18 [11]): 0.15 nM
IC50, IFNγ release by cynomolgus monkey PBMC stimulated with LPS and IL-12 (endogenous IL-18) (cynomolgus monkey IL-18): 0.28 nM
KD (pM), Schild analysis in the KG-1 IFNγ release cell assay (recombinant human IL-18 [18]): 71 pM
KD (pM), Schild analysis in the KG-1 IFNγ release cell assay [19]: 142 pM
binding result (recombinant rat IL-18 [12]): no binding
binding result (mouse IL-18): no binding
Kd (recombinant human IL-18 [16]): 0.0629 nM
koff (recombinant human IL-18 [16]): 2.9e-05 s⁻¹
kon (recombinant human IL-18 [16]): 460000 M⁻¹ s⁻¹
Kd [17]: 0.0547 nM
koff [17]: 3.5e-05 s⁻¹
kon [17]: 630000 M⁻¹ s⁻¹
